Data taken from patent publication US11912794B2, “Modulation of structured polypeptide specificity” (BicycleRD Limited, priority 2011, dated 2024).
Numbered stars: 1 amine (or outer) side, 2 acyl side, 3 side chain; on linkers, the order of the positions; unused ones are H or OH. Bridge positions count the residues as written; N and C are the ends. Ends that are not written are not given here. Peptide text beside a SMILES is read from it. TBMB = c1c(C[*:1])cc(C[*:3])cc1C[*:2]

Target: biotinylated human plasma Kallikrein (Homo sapiens, UniProt P03952)
Experiment: Phage binding assay of individual clones, randomisation of peptide domains
Conditions: not given
Description: Library construction: Small phage libraries were generated according to the methods of Heinis et al as described in ‘Cloning of phage libraries’ above. The sficx3ba primer was modified such that the bicycle-encoding portion was based on a parent 5×5 bicycle (5×5: two 5-residue loops) DNA sequence with only 4-6 codons randomized to NNS. The randomized codons were those encoding the peptide domain/motif of interest.
Assay of binding of individual clones: Library transformant colonies, or selection output colonies, were picked and grown as individual cultures in 2TY broth containing selective antibiotic. The picked colonies were DNA-sequenced using a QIAgen PyroMark Q96 DNA sequencer to reveal the amino-acid substitution present in each clone, and were assayed for human plasma Kallikrein binding as follows. The phage-containing supernatant was harvested from the culture and phage were cyclised with tris bromomethyl benzene(TBMB) based on the methods of Heinis et al (Nature Chemical Biology vol. 5 pp 502-507 (2009)). The purified phage from this process were assayed for binding to biotinylated human plasma Kallikrein using a homogeneous plate-based binding assay; assay read-out measured on a BMG Labtech Pherastar FS plate reader. The quantitative binding data from duplicate assay samples was averaged (mean) and expressed as signal:background. Assay data shown is representative of at least 2 independent experiments. The assay data was correlated with the peptide sequences.
(§1) The WPAR (SEQ ID NO: 18) motif identified from Example 1 was analysed in the context of the 06-34-03 peptide, in order to identify alternatives or improvements to the WPAR (SEQ ID NO: 18) motif. A library was constructed where positions 1, 6, 7, 8, 9 &10 of 06-34-03 were fixed and positions 2, 3, 4 & 5 were randomised (see ‘Randomisation of peptide domains—Library construction’ in Methods above). Selections against human plasma Kallikrein were performed at a variety of stringencies (see Phage selections' in Methods above). All output sequences were identified and analysed for target binding (see ‘Randomisation of peptide domains—Assay of binding of individual clones’ in Methods above). Table 17 lists each unique sequence, its relative abundance in the selection output (frequency), and a rank number according to target binding strength.
Selections against human plasma Kallikrein were performed with this library in order to study the non-WPAR (SEQ ID NO: 18) determinants of Kallikrein binding, and to isolate the optimal WPAR (SEQ ID NO: 18)-containing peptide sequence. Over 150 selection output sequences were isolated and screened for binding to human plasma Kallikrein (as described in Methods above). The sequences were ranked in order of Kallikrein binding and the top 50 sequences were aligned in Table 19. […]

Sequence of biotinylated human plasma Kallikrein (P03952 20-638): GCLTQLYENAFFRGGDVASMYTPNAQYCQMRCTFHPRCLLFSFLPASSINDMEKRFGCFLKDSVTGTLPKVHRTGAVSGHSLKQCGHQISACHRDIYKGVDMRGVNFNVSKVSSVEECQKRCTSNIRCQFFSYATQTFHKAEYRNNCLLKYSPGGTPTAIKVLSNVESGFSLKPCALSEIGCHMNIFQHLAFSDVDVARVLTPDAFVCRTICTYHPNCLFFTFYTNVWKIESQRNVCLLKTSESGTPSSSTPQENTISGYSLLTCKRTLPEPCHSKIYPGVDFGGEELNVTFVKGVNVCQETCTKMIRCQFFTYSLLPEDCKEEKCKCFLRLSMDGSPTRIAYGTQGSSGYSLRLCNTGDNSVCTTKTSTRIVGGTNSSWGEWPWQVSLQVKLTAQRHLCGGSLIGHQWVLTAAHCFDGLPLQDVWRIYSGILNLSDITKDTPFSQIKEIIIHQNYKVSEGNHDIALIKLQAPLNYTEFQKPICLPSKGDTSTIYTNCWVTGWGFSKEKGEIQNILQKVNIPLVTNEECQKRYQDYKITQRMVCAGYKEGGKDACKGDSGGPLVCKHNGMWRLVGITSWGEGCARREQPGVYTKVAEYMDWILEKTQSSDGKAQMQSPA

Compound	Kallikrein binding in target binding assay
CC(C)C[C@@H]1NC(=O)[C@H](CC(=O)O)NC(=O)[C@H](CCC(N)=O)NC(=O)[C@H](Cc2c[nH]cn2)NC(=O)[C@H]([C@@H](C)O)NC(=O)[C@@H]2CSCc3cc(cc(c3)CSC[C@@H](C(=O)N[C@@H](C)C(N)=O)NC1=O)CSC[C@H](NC(=O)[C@H](C)N)C(=O)N[C@@H](CO)C(=O)N[C@@H](Cc1c[nH]c3ccccc13)C(=O)N1CCC[C@H]1C(=O)N[C@@H](C)C(=O)N[C@@H](CCCNC(=N)N)C(=O)N2 [Peptide 06-34-03] (H-ACSWPARCTHQDLCA-NH2; linker 2-8-14 via TBMB; N-terminus and C-terminus assumed)	one of the best sequences

Same assay, conditions: WPAR domain fixed, positions 1, 6, 7, 8, 9 & 10 randomised; top 50

Compound	Rank (sequences ranked according to Kallikrein binding)
SEQ ID NO: 115 (CNWPARCTHQDLC; Synthetic sequence Kallikrein binder containing a WPAR motif)	1
SEQ ID NO: 116 (CHWPARCTHQDLC; Synthetic sequence Kallikrein binder containing a WPAR motif)	3
SEQ ID NO: 117 (CPWPARCTHQDLC; Synthetic sequence Kallikrein binder containing a WPAR motif)	4
SEQ ID NO: 118 (CSWPARCTHADLC; Synthetic sequence Kallikrein binder containing a WPAR motif)	5
SEQ ID NO: 119 (CSWPARCTHDDLC; Synthetic sequence Kallikrein binder containing a WPAR motif)	6
SEQ ID NO: 120 (CAWPARCTHTDLC; Synthetic sequence Kallikrein binder containing a WPAR motif)	7
SEQ ID NO: 121 (CQWPARCLHTDLC; Synthetic sequence Kallikrein binder containing a WPAR motif)	8
SEQ ID NO: 122 (CLWPARCTHQDLC; Synthetic sequence Kallikrein binder containing a WPAR motif)	9
SEQ ID NO: 123 (CTWPARCTHTDLC; Synthetic sequence Kallikrein binder containing a WPAR motif)	10
SEQ ID NO: 124 (CHWPARCTHQELC; Synthetic sequence Kallikrein binder containing a WPAR motif)	11
SEQ ID NO: 125 (CAWPARCLHDDLC; Synthetic sequence Kallikrein binder containing a WPAR motif)	12
SEQ ID NO: 126 (CSWPARCLHTDLC; Synthetic sequence Kallikrein binder containing a WPAR motif)	13
SEQ ID NO: 127 (CAWPARCTHVDLC; Synthetic sequence Kallikrein binder containing a WPAR motif)	14
SEQ ID NO: 128 (CAWPARCTHTDFC; Synthetic sequence Kallikrein binder containing a WPAR motif)	15
SEQ ID NO: 129 (CMWPARCMHQDLC; Synthetic sequence Kallikrein binder containing a WPAR motif)	16
SEQ ID NO: 130 (CAWPARCTHADLC; Synthetic sequence Kallikrein binder containing a WPAR motif)	17
SEQ ID NO: 131 (CQWPARCMHQDMC; Synthetic sequence Kallikrein binder containing a WPAR motif)	18
SEQ ID NO: 132 (CQWPARCTHSDLC; Synthetic sequence Kallikrein binder containing a WPAR motif)	19
SEQ ID NO: 133 (CLWPARCTHADLC; Synthetic sequence Kallikrein binder containing a WPAR motif)	20
SEQ ID NO: 134 (CRWPARCTHQDLC; Synthetic sequence Kallikrein binder containing a WPAR motif)	21
SEQ ID NO: 135 (CQWPARCMHQELC; Synthetic sequence Kallikrein binder containing a WPAR motif)	22
SEQ ID NO: 136 (CTWPARCLHQDLC; Synthetic sequence Kallikrein binder containing a WPAR motif)	23
SEQ ID NO: 137 (CSWPARCTHSHLC; Synthetic sequence Kallikrein binder containing a WPAR motif)	24
SEQ ID NO: 138 (CVWPARCTHQDLC; Synthetic sequence Kallikrein binder containing a WPAR motif)	25
SEQ ID NO: 139 (CTWPARCTHADLC; Synthetic sequence Kallikrein binder containing a WPAR motif)	26
SEQ ID NO: 140 (CHWPARCMHQDLC; Synthetic sequence Kallikrein binder containing a WPAR motif)	27
SEQ ID NO: 141 (CPWPARCTHTDLC; Synthetic sequence Kallikrein binder containing a WPAR motif)	28
SEQ ID NO: 142 (CAWPARCTHYDLC; Synthetic sequence Kallikrein binder containing a WPAR motif)	29
SEQ ID NO: 143 (CPWPARCTHQNLC; Synthetic sequence Kallikrein binder containing a WPAR motif)	30
SEQ ID NO: 144 (CSWPARCTHTELC; Synthetic sequence Kallikrein binder containing a WPAR motif)	31

Target: T1, Biotinylated hPK (Homo sapiens, UniProt P03952)
T1 construct: IHPKA, from human plasma; purchased Innovative Research, Novi, MI, USA IHPKA; host or cells: human plasma
Experiment: Phage selections, abundance of sequences in selection outputs
Assay type: binding
Conditions: 2nd stringency from High (1st value of cell)
Procedure: Glycerol stocks of phage libraries were diluted to OD600=0.1 in 500 ml 2YT/chloramphenicol (30 μg/ml) cultures and phage were produced at 30° C. over night (15-16 hrs). Phage were purified and chemically modified as described in Heinis, et al., Nat Chem Biol 2009, 5 (7), 502-7 Biotinylated hPK (3 μg) (IHPKA, from human plasma, Innovative Research, Novi, MI, USA) was incubated with 50 μl pre-washed magnetic streptavidin beads (Dynal, M-280 from Invitrogen, Paisley, UK) for 10 minutes at RT. […] Blocked beads were then mixed with the blocked chemically modified phage and incubated for 30 minutes on a rotating wheel at RT. Beads were washed 8 times with washing buffer containing 0.1% Tween 20 and twice with washing buffer before incubation with 100 μl of 50 mM glycine, pH 2.2 for 5 minutes. Eluted phage were transferred to 50 μl of 1 M Tris-Cl, pH 8 for neutralization, incubated with 30 ml TG1 cells at OD600=0.4 for 90 minutes at 37° C. and the cells were plated on large 2YT/chloramphenicol plates. One or two additional rounds of panning were performed using the same procedures. In the second round of selection, neutravidin-coated magnetic beads were used to prevent the enrichment of streptavidin-specific peptides. The neutravidin beads were prepared by reacting 0.8 mg neutravidin (Pierce, Rockford, IL, USA) with 0.5 ml tosyl-activated magnetic beads (Dynal, M-280 from Invitrogen, Paisley, UK) according to the supplier's instructions.
as §1

T1 sequence (P03952 20-638): as above

Compound	Relative abundance of motif in selection output
WSAR: phage clone: WSAR at positions 2-5 within the 06-34-03 sequence, TBMB-cyclised (also: TBMB-cyclised within the 06-34-03 context, the cysteines lie outside this motif)	3%

Same assay, conditions: 3rd stringency from High (2nd value of cell)

Compound	Relative abundance of motif in selection output
WSAR: phage clone: WSAR at positions 2-5 within the 06-34-03 sequence, TBMB-cyclised (also: TBMB-cyclised within the 06-34-03 context, the cysteines lie outside this motif)	3%

Same assay, conditions: 4th stringency from High (3rd value of cell)

Compound	Relative abundance of motif in selection output
WSAR: phage clone: WSAR at positions 2-5 within the 06-34-03 sequence, TBMB-cyclised (also: TBMB-cyclised within the 06-34-03 context, the cysteines lie outside this motif)	7%

Same assay, conditions: 5th stringency from High (4th value of cell)

Compound	Relative abundance of motif in selection output
WSAR: phage clone: WSAR at positions 2-5 within the 06-34-03 sequence, TBMB-cyclised (also: TBMB-cyclised within the 06-34-03 context, the cysteines lie outside this motif)	6%

Same assay, conditions: stringency High

Compound	Relative abundance of motif in selection output
WSAR: phage clone: WSAR at positions 2-5 within the 06-34-03 sequence, TBMB-cyclised (also: TBMB-cyclised within the 06-34-03 context, the cysteines lie outside this motif)	3%

Same assay, conditions: stringency LOW

Compound	Relative abundance of motif in selection output
WSAR: phage clone: WSAR at positions 2-5 within the 06-34-03 sequence, TBMB-cyclised (also: TBMB-cyclised within the 06-34-03 context, the cysteines lie outside this motif)	11%
